Data from PMC4932547, “Improved Aptamers for the Diagnosis and Potential Treatment of HER2-Positive Cancer”.

B1: HeA2_1 (ssDNA)
DNA: ATTAAGAACCATCACTCTTCCAAATGGATATACGACTGGG
modifications: 5' hexyl-disulfide
B2: HeA2_3 (ssDNA)
DNA: TCTAAAAGGATTCTTCCCAAGGGGATCCAATTCAAACAGC
modifications: 5' hexyl-disulfide

Biological target: HER2 extracellular domain (UniProt P04626 23-652)
Experiment: SPRi; 5 mM Mg2+; negative aptamer spots subtracted; Selection buffer: 10 mM HEPES, 120 mM NaCl, 5 mM MgCl2, 5 mM KCl; pH not stated; SPRi temperature not stated (50 uL/min, 50 or 100 nM HER2, BSA-blocked chip); cell assays at 37 C
Conditions: protein: commercial

Binder | Kd [nM]
B1 | 28.9
B2 | 6.2
